These results are taken from US20190270811A1 (UCB, published 2019).

Assay [1] concerns the target T1, Human FcRn expressed on MDCK II clone 15 cells (human FcRn and human B2M) (human, UniProt P55899 24-365). Kind of assay: cell-based or functional assay.
The target of assay [2] is T2, Human FcRn extracellular domain (non-covalent complex of human FcRn alpha chain extracellular domain and … (human, UniProt P55899 24-297; P61769 21-119).
T2 construct: also called hFcRn; hFcRn alpha chain ECD region with human beta 2 microglobulin
Kind of assay: SPR Biacore T200, IgG4P captured by anti-human Fc, hFcRn ECD/b2M as analyte, pH 7.4, run 2. (In SPR one partner is held on a chip, and binding of the other changes the refractive index at the surface.)
Method: (§1) Biomolecular interaction analysis using surface plasmon resonance technology (SPR) was performed on a Biacore T200 system (GE Healthcare) and binding to human FcRn extracellular domain determined.
(§2) The surface was regenerated by 2×60 s 50 mM HCl at 10 μl/min for the running buffer at pH6 or by 60 s 40 mM HCl and 30 s 10 mM NaOH for the running buffer at pH7.4. The data was analysed using T200 evaluation software (version 1.0) using the 1:1 binding model with local Rmax.

Assay [3] addresses T2, Human FcRn extracellular domain …. Briefly: SPR Biacore T200, IgG4P captured by anti-human Fc, hFcRn ECD/b2M as analyte, pH 6.0, run 3.
Method: as §1, §2
Assay [4] concerns the target T1, Human FcRn expressed on MDCK II clone …. Kind of assay: quantitative flow cytometry, AlexaFluor 488-labelled antibody on MDCK II clone 15 cells, pH 6.0, mean of n=3. (In flow cytometry, cells or beads pass a laser one at a time.)
Method: (§3) Specific binding of antibody to FcRn across a range of antibody concentrations was used to determine KD.
(§4) The final antibody concentrations ranged from 400 nM to 0.003 nM. The cells were washed in ice cold Facs buffer then analysed by flow cytometry using a Guava flow cytometer (Millipore, UK). Titration data sets were also produced for isotype control antibodies for each antibody format to determine non-specific binding. The number of moles of bound antibody was calculated using interpolated values from a standard curve generated from beads comprised of differing amounts of fluorescent dye. Geometric mean fluorescence values were determined in the flow cytometric analyses of cells and beads. Non-specific binding was subtracted from the anti-FcRn antibody values and the specific binding curve generated was analysed by non-linear regression using a one-site binding equation (Graphpad Prism®) to determine the KD. Data is representative of 3 experiments.
Assay [5] deals with T2, Human FcRn extracellular domain …. Briefly: SPR Biacore T200, IgG4P captured by anti-human Fc, hFcRn ECD/b2M as analyte, pH 7.4, run 3.
Method: as §1, §2
For assay [6] the target is unchanged. Kind of assay: SPR Biacore T200, IgG4P captured by anti-human Fc, hFcRn ECD/b2M as analyte, pH 6.0, run 1.
Method: as §1, §2
For assay [7], the target named is T3, Cynomolgus macaque FcRn expressed on MDCK II clone 40 cells (cynomolgus macaque FcRn and B2M) (cynomolgus macaque, UniProt Q8SPV9 24-365; Q8SPW0 21-119).
T3 construct: whole, on cells; also called Cyno FcRn
Briefly: quantitative flow cytometry on MDCK II clone 40 cells, pH 7.4, mean of n=3.

Assay [8] has as its target T2, Human FcRn extracellular domain …. Briefly: SPR Biacore T200, IgG4P captured by anti-human Fc, hFcRn ECD/b2M as analyte, pH 6.0, mean of 3.
Method: as §1, §2
The target is the same in assay [9]. Kind of assay: SPR Biacore T200, IgG4P captured by anti-human Fc, hFcRn ECD/b2M as analyte, pH 7.4, run 1.
Method: as §1, §2
The target of assay [10] is T1, Human FcRn expressed on MDCK II clone …. Kind of assay: quantitative flow cytometry, AlexaFluor 488-labelled antibody on MDCK II clone 15 cells, pH 7.4, mean of n=3.
Method: as §3, §4
For assay [11], the target named is T2, Human FcRn extracellular domain …. Kind of assay: SPR Biacore T200, IgG4P captured by anti-human Fc, hFcRn ECD/b2M as analyte, pH 6.0, run 2.
Method: as §1, §2
Assay [12] deals with T3, Cynomolgus macaque FcRn expressed on …. Kind of assay: quantitative flow cytometry on MDCK II clone 40 cells, pH 6.0, mean of n=3.
From the text: as §3
For assay [13], the target named is T2, Human FcRn extracellular domain …. Briefly: SPR Biacore T200, IgG4P captured by anti-human Fc, hFcRn ECD/b2M as analyte, pH 7.4, mean of 3.
Method: as §1, §2

T3 sequence (Q8SPV9 24-365, chain 1 of 2): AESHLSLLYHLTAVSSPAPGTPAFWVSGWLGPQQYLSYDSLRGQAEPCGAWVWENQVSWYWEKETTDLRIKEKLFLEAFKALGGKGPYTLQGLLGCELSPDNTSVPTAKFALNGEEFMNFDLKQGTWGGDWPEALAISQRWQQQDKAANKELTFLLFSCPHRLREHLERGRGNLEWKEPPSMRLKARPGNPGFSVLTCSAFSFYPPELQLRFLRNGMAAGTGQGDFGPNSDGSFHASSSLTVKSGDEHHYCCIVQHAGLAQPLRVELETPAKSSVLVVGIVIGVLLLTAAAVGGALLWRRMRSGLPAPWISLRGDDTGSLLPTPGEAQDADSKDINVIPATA
T3 sequence (Q8SPW0 21-119, chain 2 of 2): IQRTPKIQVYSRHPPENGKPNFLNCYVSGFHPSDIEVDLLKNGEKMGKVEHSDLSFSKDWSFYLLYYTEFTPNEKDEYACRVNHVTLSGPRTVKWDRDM

B1: CA170_1638.g49 FabFv (bispecific antibody)
heavy: EVQLVESGGGLVQPGGSLRLSCAASGFSLSTYGVGVGWVRQAPGKGLEWLANIWWDDDKRYNPSLENRFTISRDNAKNSAYLQMNSLRAEDTAVYYCARTPAYYGSHPPFDYWGQGTMVTVSSASTKGPSVFPLAPSSKSTSGGTAALGCLVKDYFPEPVTVSWNSGALTSGVHTFPAVLQSSGLYSLSSVVTVPSSSLGTQTYICNVNHKPSNTKVDKKVEPKSCSGGGGSGGGGTGGGGSEVQLLESGGGLVQPGGSLRLSCAVSGIDLSNYAINWVRQAPGKCLEWIGIIWASGTTFYATWAKGRFTISRDNSKNTVYLQMNSLRAEDTAVYYCARTVPGYSTAPYFDLWGQGTLVTVSS
light: DIQMTQSPSSLSASVGDRVTITCRTSEDIYTNLAWYQQKPGKVPKLLIYVAKTLQEGVPSRFSGSGSGTHYTLTISSLQPEDVATYYCLQGFKFPWTFGGGTKVEIKRTVAAPSVFIFPPSDEQLKSGTASVVCLLNNFYPREAKVQWKVDNALQSGNSQESVTEQDSKDSTYSLSSTLTLSKADYEKHKVYACEVTHQGLSSPVTKSFNRGECGGGGSGGGGSGGGGSDIQMTQSPSSVSASVGDRVTITCQSSPSVWSNFLSWYQQKPGKAPKLLIYEASKLTSGVPSRFSGSGSGTDFTLTISSLQPEDFATYYCGGGYSSISDTTFGCGTKVEIKRT
As to B1, in assay [1], the “apical to basolateral transcytosis of human IgG in MDCK II clone 15 cells, EC50” value was 420 pM.

B2: CA170_1638.g49 IgG4P (antibody)
heavy: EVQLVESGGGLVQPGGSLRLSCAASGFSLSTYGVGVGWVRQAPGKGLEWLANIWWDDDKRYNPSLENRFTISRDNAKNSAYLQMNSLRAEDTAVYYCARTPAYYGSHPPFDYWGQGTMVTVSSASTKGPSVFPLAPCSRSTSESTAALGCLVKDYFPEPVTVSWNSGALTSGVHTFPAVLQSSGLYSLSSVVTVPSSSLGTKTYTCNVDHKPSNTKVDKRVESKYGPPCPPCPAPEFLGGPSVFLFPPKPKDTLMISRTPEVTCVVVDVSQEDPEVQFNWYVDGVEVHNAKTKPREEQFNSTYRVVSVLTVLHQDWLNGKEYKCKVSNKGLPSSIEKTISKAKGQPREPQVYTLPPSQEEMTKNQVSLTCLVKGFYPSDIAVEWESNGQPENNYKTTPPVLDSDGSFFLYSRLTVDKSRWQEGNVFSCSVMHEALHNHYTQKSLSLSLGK
light: DIQMTQSPSSLSASVGDRVTITCRTSEDIYTNLAWYQQKPGKVPKLLIYVAKTLQEGVPSRFSGSGSGTHYTLTISSLQPEDVATYYCLQGFKFPWTFGGGTKVEIKRTVAAPSVFIFPPSDEQLKSGTASVVCLLNNFYPREAKVQWKVDNALQSGNSQESVTEQDSKDSTYSLSSTLTLSKADYEKHKVYACEVTHQGLSSPVTKSFNRGEC
notes: In the flow cytometry assays the antibody was labelled with AlexaFluor 488; also called 1638.49 g IgG4
What is called Kd is a measure of binding affinity in units of concentration. As usually defined, the koff is the first-order rate constant of dissociation. A higher koff goes with a short-lived complex. One may read the kon as a measure of how fast the partners come together. On to B2, for which the Kd is 33.2 pM in assay [2]; 127 pM in assay [3]; 220 pM in assay [4]; 29.3 pM in assay [5]; 129 pM in assay [6]; 300 pM in assay [7]. Moreover, the dissociation constant Kd in [8] worked out at 127 pM; in assay [9] it was 25.7 pM; in [10] it was 200 pM; in [11], 126 pM; in assay [12], 430 pM; in [13], 29.4 pM. Besides, the koff was 3.19e-05 s⁻¹ in assay [2]; 0.00014 s⁻¹ in assay [3]; 2.82e-05 s⁻¹ in [5]; 0.000143 s⁻¹ in assay [6]; 0.000141 s⁻¹ in assay [8]; 2.51e-05 s⁻¹ in assay [9]. Moreover, the koff in assay [11] was found to be 0.000139 s⁻¹; in [13], 2.84e-05 s⁻¹. For the same molecule, the kon was found to be 962000 M⁻¹ s⁻¹ in [2]; 1.11e+06 M⁻¹ s⁻¹ in [3]; 962000 M⁻¹ s⁻¹ in [5]; 1.1e+06 M⁻¹ s⁻¹ in assay [6]; 1.1e+06 M⁻¹ s⁻¹ in assay [8]; 975000 M⁻¹ s⁻¹ in assay [9]. Further, the kon in [11] turned out to be 1.1e+06 M⁻¹ s⁻¹; in assay [13], 967000 M⁻¹ s⁻¹. Besides, in assay [1], the “IgG recycling in MDCK II clone 15 cells, EC50” value is 310 pM. Moreover, in [1], the “apical to basolateral transcytosis of human IgG in MDCK II clone 15 cells, EC50” value came out at 2400 pM.
